Data on 1 molecule can be found in PMC2684960.

This experiment addresses T1, phospho-IRF3 (S386), endogenous (human (endogenous in SALE)), Q14653.
T1 chain: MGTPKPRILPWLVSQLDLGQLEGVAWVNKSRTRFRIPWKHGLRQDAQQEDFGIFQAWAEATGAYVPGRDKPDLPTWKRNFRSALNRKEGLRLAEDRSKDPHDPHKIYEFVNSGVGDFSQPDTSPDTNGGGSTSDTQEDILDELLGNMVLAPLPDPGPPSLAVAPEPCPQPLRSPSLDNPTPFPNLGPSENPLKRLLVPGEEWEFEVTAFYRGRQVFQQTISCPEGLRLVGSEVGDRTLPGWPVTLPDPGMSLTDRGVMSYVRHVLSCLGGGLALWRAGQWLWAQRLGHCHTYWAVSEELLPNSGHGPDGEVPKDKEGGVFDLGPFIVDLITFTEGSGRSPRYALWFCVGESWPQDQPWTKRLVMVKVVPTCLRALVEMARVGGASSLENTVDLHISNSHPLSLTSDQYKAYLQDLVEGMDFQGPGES
In words: native gel or EMSA. The conditions noted are these: remark: other sources report otherwise. (Mobility shift assays separate free from complexed probe on a gel.)

In general, stoichiometry N refers to a count of units in the complex or per binding partner.

B1: phospho-IRF3 (S386), endogenous, Q14653 1-427 (natural protein)
chain: T1 chain
modifications: here or on the partner: phosphoserine at 386; phosphoserine at 386
As to B1, the stoichiometry N stood at 2.
